Source: article PMC11529724
Residue numbers refer to the chain shown, from its start. In names and notes the source's numbering stands. Like-named read-outs stand apart in the source and are kept apart here. Values belong to the binder of their own block, whether it stands above or below them.

Columns and labels:
[1] = biological target: microtubules assembled from porcine brain tubulin (porcine) (UniProt P02550)
[2] = biological target: microtubules assembled from porcine brain tubulin (porcine) (UniProt P02550); remark: listed apart in the source
[3] = biological target: unmodified human microtubules (tubulin from tsA201 cells) (human (endogenous in tsA201)) (UniProt P68363); assay: TIRF microscopy binding assay

microtubules assembled from porcine brain tubulin (porcine), sequence (P02550 whole entry, chain 1 of 2): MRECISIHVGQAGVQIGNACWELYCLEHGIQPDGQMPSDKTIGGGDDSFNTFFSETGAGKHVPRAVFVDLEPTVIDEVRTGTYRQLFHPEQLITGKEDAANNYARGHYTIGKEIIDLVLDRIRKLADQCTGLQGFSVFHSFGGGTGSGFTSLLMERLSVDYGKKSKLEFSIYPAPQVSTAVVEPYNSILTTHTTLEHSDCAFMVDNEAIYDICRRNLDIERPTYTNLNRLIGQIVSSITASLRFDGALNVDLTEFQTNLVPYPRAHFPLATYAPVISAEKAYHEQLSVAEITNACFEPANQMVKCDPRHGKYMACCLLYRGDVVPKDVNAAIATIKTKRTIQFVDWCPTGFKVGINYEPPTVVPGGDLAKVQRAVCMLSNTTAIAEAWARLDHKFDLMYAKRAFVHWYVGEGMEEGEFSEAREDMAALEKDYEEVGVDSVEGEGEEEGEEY
microtubules assembled from porcine brain tubulin (porcine), sequence (P02554 whole entry, chain 2 of 2, further chain): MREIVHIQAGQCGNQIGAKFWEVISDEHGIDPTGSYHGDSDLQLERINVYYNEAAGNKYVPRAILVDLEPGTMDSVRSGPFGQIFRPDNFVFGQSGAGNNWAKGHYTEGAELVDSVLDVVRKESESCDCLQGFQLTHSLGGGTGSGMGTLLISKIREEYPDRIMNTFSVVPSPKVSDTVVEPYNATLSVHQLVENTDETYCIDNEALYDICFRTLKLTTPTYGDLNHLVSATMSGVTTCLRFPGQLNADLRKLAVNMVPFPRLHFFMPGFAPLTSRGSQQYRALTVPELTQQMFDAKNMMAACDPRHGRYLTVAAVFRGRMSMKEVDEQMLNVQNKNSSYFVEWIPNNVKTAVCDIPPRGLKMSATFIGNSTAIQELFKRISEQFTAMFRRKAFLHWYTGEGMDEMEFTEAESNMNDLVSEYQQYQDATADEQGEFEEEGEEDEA

B4: TTLL6 F408 to alanine (enzyme)
chain: GKKKRKKKRLVINLSNCRYDSVRRAAQQYGLREAGDNDDWTLYWTDYSVSLERVMEMKSYQKINHFPGMSEICRKDLLARNMSRMLKLFPKDFHFFPRTWCLPADWGDLQTYSRTRKNKTYICKPDSGCQGRGIFITRSVKEIKPGEDMICQLYISKPFIIDGFKFDLRVYVLVTSCDPLRVFVYNEGLARFATTSYSHPNLDNLDEICMHLTNYSINKHSSNFVQDAFSGSKRKLSTFNSYMKTHGYDVEQIWRGIEDVIIKTLISAHPVIKHNYHTCFPSHTLNSACFEILGFDILLDRKLKPWLLEVNHSPSFSTDSKLDKEVKDSLLYDALVLINLGNCDKKKVLEEERQRGRALQQCPNREIRLEEVKGFQAMRLQKTEEYEKKNCGGFRLIYPGLNLEKYDKFFQDNSSLFQNTVASRARELYARQLIQELRQKQEKKVFLKKARK
glutamylation activity with taxol-stabilized MTs, increase against WT [2]: 70 % increase

B6: Atto488-labeled TTLL6 (enzyme)
chain: B4 chain with A358F
modifications: Atto488 on the N-terminus, through the synthetic peptide NH2-(Atto488)-… ligated with sortase
Kd [3]: 210 nM

B7: TTLL6 F425 to alanine (enzyme)
chain: B4 chain with A358F, F375A
glutamylation activity with taxol-stabilized MTs, increase against WT [2]: 59 % increase

Continued, values first:

glutamylation activity with taxol-stabilized MTs, normalized to WT [1]: 35 % of WT
B1: TTLL6 Y479A (enzyme)
chain: B4 chain with A358F, Y429A

glutamylation activity with taxol-stabilized MTs, normalized to WT [2]: < 10 % of WT
B2: TTLL6 Leu409 to alanine (enzyme)
chain: B4 chain with A358F, L359A

glutamylation activity with taxol-stabilized MTs, normalized to WT [2]: < 10 % of WT
B3: TTLL6 Val422 to alanine (enzyme)
chain: B4 chain with A358F, V372A

glutamylation activity with taxol-stabilized MTs, normalized to WT [1]: < 20 % of WT
B5: TTLL6 K490 to glutamate (enzyme)
chain: B4 chain with A358F, K440E
